According to doi:10.64898/2025.12.18.694329:

Legend:
[1] = target: SACSIN HEPN domain (recombinant, GST-tag removed) (human); test: native gel or EMSA
[2] = target: SACSIN HEPN domain (recombinant, GST-tag removed) (human); test: SEC

SACSIN HEPN domain (recombinant, GST-tag removed) (domain or fragment)
stoichiometry N [1]: 2 | stoichiometry N [2]: 2
